Target: T1, GST-BLK, prokaryotically expressed and purified (human, UniProt P51451 1-505)
T1 construct: also called purified recombinant BLK; not shown: GST, N-terminal, kept
Assay: pull-down
Conditions: both partners purified

T1 sequence (P51451 whole entry): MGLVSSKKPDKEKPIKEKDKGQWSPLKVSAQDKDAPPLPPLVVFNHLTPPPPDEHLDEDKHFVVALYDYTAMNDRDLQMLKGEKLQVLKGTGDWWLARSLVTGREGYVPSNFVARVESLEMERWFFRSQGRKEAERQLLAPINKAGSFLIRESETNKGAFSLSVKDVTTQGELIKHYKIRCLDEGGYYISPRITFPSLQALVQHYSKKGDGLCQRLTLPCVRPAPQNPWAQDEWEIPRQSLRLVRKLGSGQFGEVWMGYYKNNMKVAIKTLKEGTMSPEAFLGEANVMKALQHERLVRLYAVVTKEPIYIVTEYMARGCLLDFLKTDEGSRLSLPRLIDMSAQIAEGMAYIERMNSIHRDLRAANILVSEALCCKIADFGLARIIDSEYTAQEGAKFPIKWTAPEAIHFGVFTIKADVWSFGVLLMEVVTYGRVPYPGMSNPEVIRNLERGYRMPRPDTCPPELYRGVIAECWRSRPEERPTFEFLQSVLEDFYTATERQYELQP

Row | binding result | Binder
1 | binds | IRF3-Flag, purified from HEK293 cells (natural protein, human, UniProt Q14653 1-427, looked up) MGTPKPRILPWLVSQLDLGQLEGVAWVNKSRTRFRIPWKHGLRQDAQQEDFGIFQAWAEATGAYVPGRDKPDLPTWKRNFRSALNRKEGLRLAEDRSKDPHDPHKIYEFVNSGVGDFSQPDTSPDTNGGGSTSDTQEDILDELLGNMVLAPLPDPGPPSLAVAPEPCPQPLRSPSLDNPTPFPNLGPSENPLKRLLVPGEEWEFEVTAFYRGRQVFQQTISCPEGLRLVGSEVGDRTLPGWPVTLPDPGMSLTDRGVMSYVRHVLSCLGGGLALWRAGQWLWAQRLGHCHTYWAVSEELLPNSGHGPDGEVPKDKEGGVFDLGPFIVDLITFTEGSGRSPRYALWFCVGESWPQDQPWTKRLVMVKVVPTCLRALVEMARVGGASSLENTVDLHISNSHPLSLTSDQYKAYLQDLVEGMDFQGPGES
2 | binds | His-IRF3, prokaryotically expressed and purified (natural protein, human, UniProt Q14653 1-427, looked up, not shown: His, N-terminal, kept) MGTPKPRILPWLVSQLDLGQLEGVAWVNKSRTRFRIPWKHGLRQDAQQEDFGIFQAWAEATGAYVPGRDKPDLPTWKRNFRSALNRKEGLRLAEDRSKDPHDPHKIYEFVNSGVGDFSQPDTSPDTNGGGSTSDTQEDILDELLGNMVLAPLPDPGPPSLAVAPEPCPQPLRSPSLDNPTPFPNLGPSENPLKRLLVPGEEWEFEVTAFYRGRQVFQQTISCPEGLRLVGSEVGDRTLPGWPVTLPDPGMSLTDRGVMSYVRHVLSCLGGGLALWRAGQWLWAQRLGHCHTYWAVSEELLPNSGHGPDGEVPKDKEGGVFDLGPFIVDLITFTEGSGRSPRYALWFCVGESWPQDQPWTKRLVMVKVVPTCLRALVEMARVGGASSLENTVDLHISNSHPLSLTSDQYKAYLQDLVEGMDFQGPGES

From article PMC10621992 (PLOS Pathogens, 2023)
